The results in this text go back to the nanobody polyreactivity screen of Harvey et al. (2022).

The nature of this data set: yeast display, Sf9 membrane polyspecificity reagent, FACS + sequencing; frameworks hold sequencing errors. The method in brief: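 Polyreactivity labels are assigned by the sorting gate from which each nanobody was recovered. The gates were low and high (top ~1%), set on anti-HA fluorescence for expression and streptavidin fluorescence for reagent binding. Before sorting, galactose-induced (36–48 hours) yeast display cells were stained for 1 hour at 4 °C with 10% biotinylated, detergent-solubilized Sf9 membrane reagent.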
As for “QVQLVESGGGLVQAGGSLRLSCAASGINFGKYAMGWYRQAPGKERELVAAITSGDSTYYADSVKGRFTISRDNAKNTVYLQMNSLKPEDTAVYYCNADAWRSQSWWHGLMEYWGQGTQVTVSS”, the “polyreactivity (PSR sort gate)” value is on record as “low polyreactivity”.

Take “QVQLVESGGGLVQAGGSLRLSCAASGINFGSNAMGWYRQAPGKERELVAAISKRGGNTYYADSVKGRFTISRDNAKNTVYLQMNSLKPEYTAVYYCATQQYLYAQKSYVEMDYWGQGTQVSVSS”: the “polyreactivity (PSR sort gate)” value was “high polyreactivity”.

Take “QVQLVESGGGLVQAGGSLRLSCAASGINFNLYAMGWYRQAPGKERELVAAISRSGDSTNYADSVKGRFTISRDNAKNTVDLQMNSLKPEDTAVYYCAVGYRYLKWVDYWGQGTQVTVSS”: the “polyreactivity (PSR sort gate)” value is “high polyreactivity”.

Consider “QVQLVESGGGLVQAGGSLRLSCAASGINFVGYAMGWDRQAPGKERELVAAISTSSRTYYADSVKGRFTISRDNAKNTVYIQMNSLKPEDTAVYYCNARGTRWYYRHDYWGQGTQVTVSS”, for which the “polyreactivity (PSR sort gate)” value is “high polyreactivity”.

As to “QVQLVESGGGLVQAGGSLRLSCAASGINFVKYTMGWYRQAPGKERELVAAITWTVGSTYYADSVKGRFTISRDNAKNTVYFQMNSLKPEDTAVYYCAARYYYWGQGTQVTGSS”, the “polyreactivity (PSR sort gate)” value is “high polyreactivity”.

As to “QVQLVESGGGLVQAGGSLRLSCAASGINIRYYAMGWYRQAPGKERELVADITTGGTTYYADSVKGRFTISRDNAKNTVYLQMNSLKPEDTAVYYCAAYYFPTYSKTYIYPFDYWGQGTQVTVSS”, the “polyreactivity (PSR sort gate)” value is “low polyreactivity”.

With “QVQLVESGGGLVQAGGSLRLSCAASGINISYYAMGWYRQAPGKEREFVAAISWSVGSTYYADSVKGRFTISRDNAKYTVYLQMNSLKPEDTAVYYCAAEDGYWPTYYYWGQGSQVTVSS”, the “polyreactivity (PSR sort gate)” value is listed as “high polyreactivity”.

Regarding “QVQLVESGGGLVQAGGSLRLSCAASGINTAGYAMGWYRQAPGKERELVAAISTSGTSTYYADSVKGRFTISRDNAQNTVYLQMNSLQPEDTAVYYCAYTNYYGVGYYYWGQGTLVTVSS”, the “polyreactivity (PSR sort gate)” value is on record as “low polyreactivity”.

Take “QVQLVESGGGLVQAGGSLRLSCAASGINYTFYAMGWYRQAPGKERELVAAISYSSGSTYADSVKGRFTISRDNAKNTVYLQMNSLKPEDTAVYYCAVDLFPGHSYTYDYWGQGTQVTVSS”: the “polyreactivity (PSR sort gate)” value is listed as “low polyreactivity”.

Regarding “QVQLVESGGGLVQAGGSLRLSCAASGIQVYNAMGWYRQAPGKERELVAAISARGGRTYYADSVKGRFTISRDNAKNTVYLQMNSLKPEDTAVYYCATLETTGVNYWGQGTLVTVSS”, the “polyreactivity (PSR sort gate)” value is recorded as “high polyreactivity”.

In the case of “QVQLVESGGGLVQAGGSLRLSCAASGISFAIYAMGWYRQAPGKERELVAAISARGGTYYADSVKGRFTISRDNANNTVYSQMNSLKPEDTAVYYCNTDYVSRDDWDYRRYDYWGQGTQVTVSS”, the “polyreactivity (PSR sort gate)” value is reported as “low polyreactivity”.

For the sequence “QVQLVESGGGLVQAGGSLRLSCAASGISFNGNAMGWYRQAPGKERELVAAISGSGGSTYYADSVKGRFTISRDNAKNSVYLQMNSLKQEDTAVYYCNALYGRRVYVGYDYWGQGSQVTVSS”, the “polyreactivity (PSR sort gate)” value was “high polyreactivity”.

“QVQLVESGGGLVQAGGSLRLSCAASGITFADNSMGWYRQAPGKERELVAAISRGGSTYYADSVKGRFTISRDNAKNTVYLQMNSLKPEDTAVYYCAAAGWWRAWGSYLRFYGYDYWGQGTQVTVSS”: the “polyreactivity (PSR sort gate)” value was “low polyreactivity”.

As for “QVQLVESGGGLVQAGGSLRLSCAASGITFADYAMGRYRQAPGKERELVAAISSGTSTYYADSVKGRFTISPDNAKNTVYLQMNSLKPEDTAVYYFYARYWGRVPPPAYDPRRYWGQGTQVTVSS”, the “polyreactivity (PSR sort gate)” value was “high polyreactivity”.

Turning to “QVQLVESGGGLVQAGGSLRLSCAASGITFADYVMGWYRPAPGKERELVAAISTDGGSTYYADSVKGRFTISRDNAKNTVYLQMNSLKPEDTAVYYCASEWSYPGYEFDYWGQGTQVTVSS”, the “polyreactivity (PSR sort gate)” value is given as “high polyreactivity”.

On to “QVQLVESGGGLVQAGGSLRLSCAASGITFAKYAMGWYRQAPGKERELVAAISTSGGSTYYADSVKGRFTISRDNAKNTVYLQMYSLKPEDTAVYYCNVDTYIWYYLRYYNYWGQGTQVTVSS”, for which the “polyreactivity (PSR sort gate)” value is reported as “high polyreactivity”.

Turning to “QVQLVESGGGLVQAGGSLRLSCAASGITFAPYAMGWYRQAPGKERELVAVISSGGSTKYADSVKGRFTISRDNAKNTVYLQMNSLKPEDTAVYYCAASAPRGYGYKYYYWGQGTQVTVSS”, the “polyreactivity (PSR sort gate)” value is on record as “high polyreactivity”.

Take “QVQLVESGGGLVQAGGSLRLSCAASGITFARYTMGWYRQAPGKERELVAAISWSGTSTYYADSVKGRFTISRDNAKNTVYLQMNSLKPEDTAVYYCAAGYSASRKVDYWGQGTQVTVSS”: the “polyreactivity (PSR sort gate)” value is “high polyreactivity”.

With “QVQLVESGGGLVQAGGSLRLSCAASGITFAYYAMGWYRQAPGKERELVAGISKSGGRTYYADSVKGRFTISRDNAKNTVYVQLNSLKPEYTAVYYCASQDARRIVYDRYYYWGQGTQVTVSS”, the “polyreactivity (PSR sort gate)” value is “high polyreactivity”.

With “QVQLVESGGGLVQAGGSLRLSCAASGITFAYYVMGWYRPAPGKERELVAVISSRGSRTFYADSVKGRFTISRDNAKNTVYLQMNSLKPEDTAVYYCAADSTYSYYWGQGTQVTVSS”, the “polyreactivity (PSR sort gate)” value was “high polyreactivity”.

Regarding “QVQLVESGGGLVQAGGSLRLSCAASGITFDGYAMGWYRQAPGKEREFVAAISRSGTSTYYADSVKGRFTISRDNAKNTVYLQMNSLKPEDSAVYYCNKKWPRLYYYWGQGTQVTVSS”, the “polyreactivity (PSR sort gate)” value is recorded as “high polyreactivity”.

For “QVQLVESGGGLVQAGGSLRLSCAASGITFDHYAMGWYRPAPGKERELVATIRGSGTSTYYADSVKGRFTISRDNAKNTVYLQMHSLKPEDTAVYYCAARGRYRQFNYWGQGTQVTVSS”, the “polyreactivity (PSR sort gate)” value was “high polyreactivity”.

Take “QVQLVESGGGLVQAGGSLRLSCAASGITFDKNTMGWYRQAPGKERELVAAISARGGSTYYADSVKGRFTISRDNAKYTVYLQMNSLKPEDTAVYYCAATRSYSYRTVYRRKYNYWGQGTQVTVSS”: the “polyreactivity (PSR sort gate)” value is “high polyreactivity”.

For “QVQLVESGGGLVQAGGSLRLSCAASGITFDKYALGWYRQAPGNERELVAAISGSDGSTYYADSVKGRFTISRDNAKNTVYLQNNSLKPEDTAVYYCAAESEYAGTYEYDYWGQGTQVTVSS”, the “polyreactivity (PSR sort gate)” value is listed as “low polyreactivity”.

Turning to “QVQLVESGGGLVQAGGSLRLSCAASGITFDKYAMGWYRQAPGKERELVARITSGGGTNYADSVKGRFTISRDNAKNTVYLQMNSLKPEDTAVYSCNKRTSPKRFDYWGQGTQVTVSS”, the “polyreactivity (PSR sort gate)” value is “high polyreactivity”.

Take “QVQLVESGGGLVQAGGSLRLSCAASGITFDLYAMGWFRQAPGKERELVAAISISSTSTYYADSVKGRFTISRDNAKNTVYLQMNSLKPEDTAVYYCNAVPSSKTFWFDYWGQGTQVTVSS”: the “polyreactivity (PSR sort gate)” value is “low polyreactivity”.

As for “QVQLVESGGGLVQAGGSLRLSCAASGITFDNYAMGWYRQAPGKEWELVAAISSDDNTTYADSVKGRFTISRDNAKNTVYLQMNSLKPEDSAVYYCAADSRIYGYWEYDYCGQGTQVTVSS”, the “polyreactivity (PSR sort gate)” value is listed as “low polyreactivity”.

On to “QVQLVESGGGLVQAGGSLRLSCAASGITFDNYAMGWYRQAPGKEWELVAAISSDDNTTYADSVKGRFTISRDNAKNTVYLQMNSLKPEDTAVYYCAADSRIYGYWEYDYWGQGTQVTVST”, for which the “polyreactivity (PSR sort gate)” value is “low polyreactivity”.

As to “QVQLVESGGGLVQAGGSLRLSCAASGITFDQNAMGWSRQEPGKESEFVAAISVSGARTYYADSVKGRFTISRDNAKNTVYLQMNSLKPEDTAVYYCAAYGGTRYYYSYYYWGQGTQVTVSS”, the “polyreactivity (PSR sort gate)” value is listed as “high polyreactivity”.

Take “QVQLVESGGGLVQAGGSLRLSCAASGITFDSYALGSYRQAPGKERELVAAISGSGGSTYYADSVKGRFTISRDNAKNTVYLQMNSLKPEDTAVYYCAADWYPTGFYYWGQGTQVTVSS”: the “polyreactivity (PSR sort gate)” value is recorded as “low polyreactivity”.

Consider “QVQLVESGGGLVQAGGSLRLSCAASGITFDSYAMGWYRQSPGKEREWVDAISYSGGSTYYADSVKGRFTISRDNAKNTVNLQMNRLKPEDTAVYYFAAASDEDYDYWGQGTQVTVSS”, for which the “polyreactivity (PSR sort gate)” value is “low polyreactivity”.

In the case of “QVQLVESGGGLVQAGGSLRLSCAASGITFDTYVMGWYRQAPGKERELVAAISNSDGSTYYADSVKGRFTISRDNAKNTVYLQMNSLKPEDTAVYYCNAQSYYYWHLRYDYWGQGTQVTVSS”, the “polyreactivity (PSR sort gate)” value is given as “high polyreactivity”.

For the sequence “QVQLVESGGGLVQAGGSLRLSCAASGITFDYYAMGWYRQAPGKERELVAAISRSGGSTYYADSVKGRFTISRDKAKNTVYLQMNSLKPEDTAVYYCAAYALTIRAYYYWGQGTQVTVSS”, the “polyreactivity (PSR sort gate)” value is reported as “high polyreactivity”.

Regarding “QVQLVESGGGLVQAGGSLRLSCAASGITFDYYAMGWYRQAPGKERELVAAITSRGGSTYYADSVKGRFTISRDNAKNTVYLQMNSLKPEDTAVYYCAAVRSGYYNYWGQGTQVTVSS”, the “polyreactivity (PSR sort gate)” value is reported as “high polyreactivity”.

On to “QVQLVESGGGLVQAGGSLRLSCAASGITFDYYAMGWYRQAPRKERELVPGISWGGGSTYYADSVKGRFTISRDNAKNTVYLQMNSLKPEDTAVYYCAADIVSSPSSYVPPGDYWGQGTQVTVSS”, for which the “polyreactivity (PSR sort gate)” value is recorded as “low polyreactivity”.

With “QVQLVESGGGLVQAGGSLRLSCAASGITFDYYGMGWYIQAPGKERELVASITSGGSTNYADSVKGRFTISRDNPKNTVYLQMNSLKPEDTAVYYCNAEFWEVSPDPRDYDYWGQGTQVTVSS”, the “polyreactivity (PSR sort gate)” value is reported as “low polyreactivity”.

“QVQLVESGGGLVQAGGSLRLSCAASGITFENYAMGWYRQAPGKETELVASITRSGGNTYYADSVKGRFTISRDTAKNSVYLQMNSLKPEDTAVYDCAKDSGLNDDFIYWGQGTQVTVSS”: the “polyreactivity (PSR sort gate)” value is listed as “low polyreactivity”.

Turning to “QVQLVESGGGLVQAGGSLRLSCAASGITFEYNAMGWYRQAPGKERELVATISGGARTYYADSVKGRFTISRDNAKNTVYLQMNSLKPEETAVYYCAAKYPWYGWFDHWGQGTQVTVSS”, the “polyreactivity (PSR sort gate)” value is “low polyreactivity”.

“QVQLVESGGGLVQAGGSLRLSCAASGITFEYYAMGWYRQAPGKERELVAAIDTGGSTNYADSVKGRFTISRDNAKNTVYLQMNSLKPEDTAVYYCAADWSWWDGEDYHFEYDYWGQGTQVTVSS”: the “polyreactivity (PSR sort gate)” value is given as “low polyreactivity”.

On to “QVQLVESGGGLVQAGGSLRLSCAASGITFEYYAMGWYRQAPGKERELVAAIDTVGSTNYADSVKGRFTISRDNAKNTVYLQMNSLKPEDTAVYYCAADWSWWDGEDYHFEYDYWGQGTQVTVSS”, for which the “polyreactivity (PSR sort gate)” value was “low polyreactivity”.

Turning to “QVQLVESGGGLVQAGGSLRLSCAASGITFEYYDMGWYRQAPGKERELVAAISWSTDITYADSVKGRFTISRDNAKNTVYLQLNSLKPEDTAVYYCAALGGLSDFWHLYDYWGQGTQVTVSS”, the “polyreactivity (PSR sort gate)” value is recorded as “low polyreactivity”.
